Consider 77 sequences from the supplement of paper PMC7877785.

± gives the uncertainty stated by the source.

This series is described as follows: self-splicing fitness, log relative to wild type (ln ratio); higher = more splicing; Tetrahymena group I intron in knt gene, E. coli kanamycin selection, DiMSum; sequences stand for … in CUCUCU…GGAGGGAAAAGUUAUCAGGCAUGCACCUGGUAGCUAGUCUUUAAACCAAUAGAUUGCAUCGGUUUAAAAGGCAAGACCGUCAAAUUGCGGGAAAGGGGUCAACAGCCGUUCAGUACCAAGUCUCAGGGGAAACUUUGAGAUGGCCUUGCAAAGGGUAUGGUAAUAAGCUGACGGACAUGGUCCUAACCACGCAGCCAAGUCCUAAGUCAACAGAUCUUCUGUUGAUAUGGAUGCAGUUCACAGACUAAAUGUCGGUCGGGGAAGAUGUAUUCUUCUCAUAAGAUAUAGUCGGACCUCUCCUUAAUGGGAGCUAGCGGAUGAAGUGAUGCAACACUGGAGCCGCUGGGAACUAAUUUGUAUGCGAAAGUAUAUUGAUUAGUUUUGGAGUACUCGUGGUCG
The essentials: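 Pooled colonies went to amplicon sequencing on an Illumina HiSeq 2500 after six replicate transformations. The plates were LB agar with 100 μg/mL carbenicillin, 50 μM IPTG and 0.2% rhamnose, with or without 25 μg/mL kanamycin, incubated overnight at 37°C or 30°C. The E. coli BL21(DE3) library had all eight P1ex-region intron nucleotides randomised, the intron placed in the knt kanamycin-resistance gene on pET-22b(+). DiMSum fitness is the error-weighted combination of replicate fold changes, kanamycin against none, normalised to wild type.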

Consider CCAGAGCAAUAUUACGAUGC, for which the “self-splicing fitness (ln)” value reads like this: (30 °C) -3.48 ± 0.34; (37 °C) -2.78 ± 0.29.
Taken in the same sequence, the figures for CCAGAGCAAUAUUACGCAAG were -2.15 ± 0.19 and -2.33 ± 0.29.
CCAGAGCAAUAUUACGCAGA: the “self-splicing fitness (ln)” value was -2.8 ± 0.19 (30 °C) and -2.84 ± 0.44 (37 °C).
For CCAGAGCAAUAUUACGCCAC the same measures were -3.59 ± 0.26 and -2.28 ± 0.24.
Turning to CCAGAGCAAUAUUACGCCAU, the “self-splicing fitness (ln)” value by setting is: (30 °C) -2.03 ± 0.19; (37 °C) -2.75 ± 0.27.
Taken in the same sequence, the figures for CCAGAGCAAUAUUACGCGAA were -4.06 ± 0.4 and -2.15 ± 0.29.
As to CCAGAGCAAUAUUACGCGGG, the “self-splicing fitness (ln)” value (30 °C) is -3.33 ± 0.44.
The same measure, in the same setting: for CCAGAGCAAUAUUACGCUUC the value was -3.48 ± 0.42.
In the case of CCAGAGCAAUAUUACGGAAC, the “self-splicing fitness (ln)” value is -2.32 ± 0.2 (30 °C) and -3.08 ± 0.36 (37 °C).
As to CCAGAGCAAUAUUACGGACA, the “self-splicing fitness (ln)” value (30 °C) was -3.25 ± 0.44.
Regarding CCAGAGCAAUAUUACGGCUU, the “self-splicing fitness (ln)” value reads like this: (30 °C) -3.75 ± 0.28; (37 °C) -1.8 ± 0.2.
For CCAGAGCAAUAUUACGGGCA the same measures were -2.92 ± 0.28 and -2.64 ± 0.38.
Taken in the same sequence, the figures for CCAGAGCAAUAUUACGUAAC were -3.56 ± 0.37 and -1.96 ± 0.32.
In the case of CCAGAGCAAUAUUACGUCGA, the “self-splicing fitness (ln)” value by setting is: (30 °C) -3.92 ± 0.18; (37 °C) -3.12 ± 0.17.
For CCAGAGCAAUAUUACGUGAA the same measures were -3.7 ± 0.16 and -2.32 ± 0.18.
Taken in the same sequence, the figures for CCAGAGCAAUAUUACGUGUA were -3.22 ± 0.21 and -2.08 ± 0.23.
Turning to CCAGAGCAAUAUUACGUGUU, the “self-splicing fitness (ln)” value was -3.64 ± 0.16 (30 °C) and -2.88 ± 0.17 (37 °C).
Turning to CCAGAGCAAUAUUACGUUAU, the “self-splicing fitness (ln)” value (30 °C) is -3.68 ± 0.24 and the “self-splicing fitness (ln)” value (37 °C) was -2.2 ± 0.2.
As to CCAGAGCAAUAUUACGUUGG, the “self-splicing fitness (ln)” value runs as follows: (30 °C) -3.93 ± 0.23; (37 °C) -2.57 ± 0.23.
Turning to CCAUAGCAAUAUUACGGAAA, the “self-splicing fitness (ln)” value (30 °C) was -2.94 ± 0.41 and the “self-splicing fitness (ln)” value (37 °C) was -2.36 ± 0.34.
Taken in the same sequence, the figures for CCAUAGCAAUAUUACGGAGG were -3.57 ± 0.21 and -0.997 ± 0.15.
CCAUAGCAAUAUUACGGCGG: the “self-splicing fitness (ln)” value (30 °C) was -1.95 ± 0.13 and the “self-splicing fitness (ln)” value (37 °C) is -1.6 ± 0.18.
On to CCAUAGCAAUAUUACGGGCC, for which the “self-splicing fitness (ln)” value (37 °C) was -1.32 ± 0.23.
With CCAUAGCAAUAUUACGGUAG, the “self-splicing fitness (ln)” value is -2.01 ± 0.1 (30 °C) and -0.787 ± 0.11 (37 °C).
Taken in the same sequence, the figures for CCAUAGCAAUAUUACGGUGA were -1.18 ± 0.11 and -1.74 ± 0.12.
For CCAUAGCAAUAUUACGUCGU the same measures were -2.4 ± 0.15 and -2.82 ± 0.23.
Taken in the same sequence, the figures for CCAUAGCAAUAUUACGUUAG were -3.33 ± 0.13 and -2.01 ± 0.13.
In the case of CCAUAGCAAUAUUACGUUCA, the “self-splicing fitness (ln)” value reads like this: (30 °C) -3.17 ± 0.26; (37 °C) -2.6 ± 0.44.
For CCAUAGCAAUAUUACGUUGU the same measures were -4.79 ± 0.41 and -2.66 ± 0.19.
As to CCCAAGCAAUAUUACGAAAG, the “self-splicing fitness (ln)” value (30 °C) was -3.49 ± 0.17 and the “self-splicing fitness (ln)” value (37 °C) is -3.39 ± 0.31.
Taken in the same sequence, the figures for CCCAAGCAAUAUUACGAACA were -3.02 ± 0.27 and -3.04 ± 0.26.
For CCCAAGCAAUAUUACGAACC, the “self-splicing fitness (ln)” value (37 °C) is -2.59 ± 0.35.
For CCCAAGCAAUAUUACGAACU, the “self-splicing fitness (ln)” value reads like this: (30 °C) -3.54 ± 0.34; (37 °C) -2.91 ± 0.38.
For CCCAAGCAAUAUUACGACUG the same measures were -3.41 ± 0.14 and -3.49 ± 0.23.
Taken in the same sequence, the figures for CCCAAGCAAUAUUACGAGCA were -3.01 ± 0.24 and -2.95 ± 0.25.
Taken in the same sequence, the figures for CCCAAGCAAUAUUACGAGGC were -4.03 ± 0.15 and -3.25 ± 0.18.
Consider CCCAAGCAAUAUUACGAUAC, for which the “self-splicing fitness (ln)” value (30 °C) was -3.63 ± 0.46.
Regarding CCCAAGCAAUAUUACGAUAU, the “self-splicing fitness (ln)” value is -3.29 ± 0.19 (30 °C) and -3.25 ± 0.15 (37 °C).
Consider CCCAAGCAAUAUUACGAUUA, for which the “self-splicing fitness (ln)” value by setting is: (30 °C) -2.97 ± 0.19; (37 °C) -2.9 ± 0.27.
Turning to CCCAAGCAAUAUUACGCGAC, the “self-splicing fitness (ln)” value by setting is: (30 °C) -3.2 ± 0.21; (37 °C) -2.29 ± 0.19.
As to CCCAAGCAAUAUUACGCGAG, the “self-splicing fitness (ln)” value runs as follows: (30 °C) -3.22 ± 0.24; (37 °C) -2.58 ± 0.2.
For CCCAAGCAAUAUUACGCGGC the same measures were -2.8 ± 0.2 and -2.38 ± 0.23.
Take CCCAAGCAAUAUUACGCGUC: the “self-splicing fitness (ln)” value (30 °C) was -3.06 ± 0.16 and the “self-splicing fitness (ln)” value (37 °C) was -2.6 ± 0.29.
For CCCAAGCAAUAUUACGCGUU the same measures were -4.28 ± 0.18 and -1.74 ± 0.12.
Taken in the same sequence, the figures for CCCAAGCAAUAUUACGGAAC were -3.54 ± 0.21 and -2.62 ± 0.25.
As for CCCAAGCAAUAUUACGGGAA, the “self-splicing fitness (ln)” value is -2.75 ± 0.17 (30 °C) and -1.96 ± 0.16 (37 °C).
For CCCAAGCAAUAUUACGGGCU the same measures were -3.61 ± 0.18 and -2.31 ± 0.17.
For CCCAAGCAAUAUUACGGUAA the same measures were -2.25 ± 0.14 and -1.4 ± 0.16.
Consider CCCAAGCAAUAUUACGUGCU, for which the “self-splicing fitness (ln)” value (30 °C) was -2.08 ± 0.11 and the “self-splicing fitness (ln)” value (37 °C) was -2.6 ± 0.2.
As to CCCAAGCAAUAUUACGUGGC, the “self-splicing fitness (ln)” value by setting is: (30 °C) -3.5 ± 0.13; (37 °C) -2.8 ± 0.18.
On to CCCCAGCAAUAUUACGAACA, for which the “self-splicing fitness (ln)” value reads like this: (30 °C) -2.51 ± 0.17; (37 °C) -2.85 ± 0.28.
Taken in the same sequence, the figures for CCCCAGCAAUAUUACGACUA were -2.66 ± 0.17 and -2.93 ± 0.28.
For CCCCAGCAAUAUUACGAGCA the same measures were -1.5 ± 0.14 and -3.13 ± 0.34.
Take CCCCAGCAAUAUUACGCCCG: the “self-splicing fitness (ln)” value by setting is: (30 °C) -1.79 ± 0.17; (37 °C) -2.57 ± 0.28.
For CCCCAGCAAUAUUACGCGAA the same measures were -4.21 ± 0.15 and -1.69 ± 0.14.
Take CCCCAGCAAUAUUACGCUGG: the “self-splicing fitness (ln)” value is -2.76 ± 0.11 (30 °C) and -1.73 ± 0.14 (37 °C).
Taken in the same sequence, the figures for CCCCAGCAAUAUUACGGGCG were -3.69 ± 0.15 and -1.94 ± 0.11.
On to CCCCAGCAAUAUUACGGUAU, for which the “self-splicing fitness (ln)” value is, setting by setting: (30 °C) -3.72 ± 0.13; (37 °C) -2.88 ± 0.2.
Regarding CCCCAGCAAUAUUACGGUCA, the “self-splicing fitness (ln)” value by setting is: (30 °C) -2.71 ± 0.16; (37 °C) -0.931 ± 0.13.
For CCCCAGCAAUAUUACGUACC the same measures were -4.07 ± 0.18 and -3.36 ± 0.35.
Consider CCCCAGCAAUAUUACGUAGA, for which the “self-splicing fitness (ln)” value (30 °C) is -2.95 ± 0.12 and the “self-splicing fitness (ln)” value (37 °C) is -2.7 ± 0.18.
Taken in the same sequence, the figures for CCCCAGCAAUAUUACGUCGA were -4.09 ± 0.23 and -2.27 ± 0.15.
Consider CCCCAGCAAUAUUACGUUCA, for which the “self-splicing fitness (ln)” value is -2.97 ± 0.12 (30 °C) and -2.84 ± 0.2 (37 °C).
Taken in the same sequence, the figures for CCCGAGCAAUAUUACGAACA were -2.93 ± 0.3 and -2.51 ± 0.35.
CCCGAGCAAUAUUACGACAU: the “self-splicing fitness (ln)” value was -3.865 ± 0.026 (30 °C) and -2.88 ± 0.041 (37 °C).
Taken in the same sequence, the figures for CCCGAGCAAUAUUACGAUAC were -2.29 ± 0.27 and -1.57 ± 0.36.
For CCCGAGCAAUAUUACGAUGU the same measures were -3.46 ± 0.25 and -2.13 ± 0.27.
For CCCGAGCAAUAUUACGCCAC the same measures were -3.54 ± 0.26 and -2.84 ± 0.31.
Turning to CCCGAGCAAUAUUACGCUCU, the “self-splicing fitness (ln)” value (37 °C) is -2.7 ± 0.29.
With CCCGAGCAAUAUUACGCUGA, the “self-splicing fitness (ln)” value (30 °C) is -3.44 ± 0.35 and the “self-splicing fitness (ln)” value (37 °C) is -2.26 ± 0.2.
Regarding CCCGAGCAAUAUUACGCUGC, the “self-splicing fitness (ln)” value (30 °C) was -2.93 ± 0.21 and the “self-splicing fitness (ln)” value (37 °C) was -2.63 ± 0.3.
Take CCCGAGCAAUAUUACGGAGU: the “self-splicing fitness (ln)” value runs as follows: (30 °C) -3.46 ± 0.25; (37 °C) -2.87 ± 0.22.
Turning to CCCGAGCAAUAUUACGGAUU, the “self-splicing fitness (ln)” value is, setting by setting: (30 °C) -4.16 ± 0.18; (37 °C) -2.55 ± 0.17.
For CCCGAGCAAUAUUACGGCAU the same measures were -3.28 ± 0.37 and -1.85 ± 0.32.
For the sequence CCCGAGCAAUAUUACGGGAC, the “self-splicing fitness (ln)” value runs as follows: (30 °C) -3.05 ± 0.18; (37 °C) -1.89 ± 0.19.
As for CCCGAGCAAUAUUACGGUCA, the “self-splicing fitness (ln)” value is -4.25 ± 0.46 (30 °C) and -2.57 ± 0.26 (37 °C).
For CCCGAGCAAUAUUACGGUUG the same measures were -3.65 ± 0.15 and -1.81 ± 0.11.
